Measurements as given in US20110300138A1 (published 2011).
Read-outs that look alike come from different tables or passages of the source.

Key:
Assay in all cases: cell-based or functional assay
[1] = target: TSHR with Glu107 mutated to Ala expressed in CHO cells (human) (UniProt P16473)
[2] = target: wild type TSHR (human TSH receptor) expressed in CHO cells (human) (UniProt P16473)
[3] = target: TSHR with Glu61 mutated to Ala, expressed in CHO cells (human) (UniProt P16473)
[4] = target: TSHR with Ser281 mutated to Ala, expressed in CHO cells (human) (UniProt P16473)
[5] = target: TSHR with Ile60 mutated to Ala, expressed in CHO cells (human) (UniProt P16473)
[6] = target: TSHR with Tyr82 mutated to Ala expressed in CHO cells (human) (UniProt P16473)
[7] = target: TSHR with Lys183 mutated to Asp expressed in CHO cells (human) (UniProt P16473)
[8] = target: wild type TSHR expressed in CHO cells (human) (UniProt P16473)
[9] = target: TSHR with Glu178 mutated to Ala expressed in CHO cells (human) (UniProt P16473)
[10] = target: wild type TSHR expressed in CHO cells (human) (UniProt P16473); remark: listed apart in the source
[11] = target: TSHR with Phe134 mutated to Ala, expressed in CHO cells (human) (UniProt P16473)
[12] = target: wild type TSHR expressed in CHO cells (human) (UniProt P16473); remark: listed apart in the source
[13] = target: TSHR with Phe130 mutated to Ala, expressed in CHO cells (human) (UniProt P16473)

Substance: 5B3 (human monoclonal antibody to GAD, negative control for K1-70)
- % inhibition of TSH stimulation; 5B3 10 µg/mL [1]: 15%
- % inhibition of TSH stimulation; 5B3 100 µg/mL [1]: 17%
- Cyclic AMP produced; 5B3 10 µg/mL + TSH 3 ng/mL [1]: 70.9 pmol/mL
- Cyclic AMP produced; 5B3 100 µg/mL + TSH 3 ng/mL [1]: 66.8 pmol/mL
- Mutated/wild type (%) of cyclic AMP produced; 5B3 10 µg/mL + TSH 3 ng/mL [1]: 83%
- Mutated/wild type (%) of cyclic AMP produced; 5B3 100 µg/mL + TSH 3 ng/mL [1]: 82%
- % inhibition of TSH stimulation; 5B3 10 µg/mL [2]: 1%
- % inhibition of TSH stimulation; 5B3 10 µg/mL; Experiment 1 [2]: 0%
- % inhibition of TSH stimulation; 5B3 10 µg/mL; Experiment 2 [2]: 0%
- % inhibition of TSH stimulation; 5B3 100 µg/mL [2]: 0%
- % inhibition of TSH stimulation; 5B3 100 µg/mL; Experiment 1 [2]: 2%
- % inhibition of TSH stimulation; 5B3 100 µg/mL; Experiment 2 [2]: 0%
- % inhibition of TSH stimulation; 5B3 10 µg/mL [3]: 0%
- % inhibition of TSH stimulation; 5B3 100 µg/mL [3]: 9%
- Mutated/wild type (%) of cyclic AMP produced; 5B3 10 µg/mL + TSH 3 ng/mL [3]: 68%
- Mutated/wild type (%) of cyclic AMP produced; 5B3 100 µg/mL + TSH 3 ng/mL [3]: 55%
- % inhibition of TSH stimulation; 5B3 10 µg/mL; Experiment 1 [4]: 19%
- % inhibition of TSH stimulation; 5B3 10 µg/mL; Experiment 2 [4]: 4%
- % inhibition of TSH stimulation; 5B3 100 µg/mL; Experiment 1 [4]: 11%
- % inhibition of TSH stimulation; 5B3 100 µg/mL; Experiment 2 [4]: 0%
- Mutated/wild type (%) of cyclic AMP produced; test sample 5B3 10 µg/mL + TSH (3 ng/mL); Experiment 1 [4]: 67%
- Mutated/wild type (%) of cyclic AMP produced; test sample 5B3 10 µg/mL + TSH (3 ng/mL); Experiment 2 [4]: 80%
- Mutated/wild type (%) of cyclic AMP produced; test sample 5B3 100 µg/mL + TSH (3 ng/mL); Experiment 1 [4]: 71%
- Mutated/wild type (%) of cyclic AMP produced; test sample 5B3 100 µg/mL + TSH (3 ng/mL); Experiment 2 [4]: 87%
- % inhibition of TSH stimulation; 5B3 10 µg/mL; Experiment 1 [5]: 0%
- % inhibition of TSH stimulation; 5B3 10 µg/mL; Experiment 2 [5]: 17%
- % inhibition of TSH stimulation; 5B3 100 µg/mL; Experiment 1 [5]: 14%
- % inhibition of TSH stimulation; 5B3 100 µg/mL; Experiment 2 [5]: 0%
- Mutated/wild type (%) of cyclic AMP produced; 5B3 10 µg/mL + TSH 3 ng/mL; Experiment 1 [5]: 58%
- Mutated/wild type (%) of cyclic AMP produced; 5B3 10 µg/mL + TSH 3 ng/mL; Experiment 2 [5]: 53%
- Mutated/wild type (%) of cyclic AMP produced; 5B3 100 µg/mL + TSH 3 ng/mL; Experiment 1 [5]: 50%
- Mutated/wild type (%) of cyclic AMP produced; 5B3 100 µg/mL + TSH 3 ng/mL; Experiment 2 [5]: 62%
- % inhibition of TSH stimulation; 5B3 10 µg/mL; Experiment 1 [6]: 16%
- % inhibition of TSH stimulation; 5B3 10 µg/mL; Experiment 2 [6]: 4%
- % inhibition of TSH stimulation; 5B3 100 µg/mL; Experiment 1 [6]: 16%
- % inhibition of TSH stimulation; 5B3 100 µg/mL; Experiment 2 [6]: 8%
- Cyclic AMP produced; 5B3 10 µg/mL + TSH 3 ng/mL; Experiment 1 [6]: 139 pmol/mL
- Cyclic AMP produced; 5B3 10 µg/mL + TSH 3 ng/mL; Experiment 2 [6]: 71.9 pmol/mL
- Cyclic AMP produced; 5B3 100 µg/mL + TSH 3 ng/mL; Experiment 1 [6]: 139 pmol/mL
- Cyclic AMP produced; 5B3 100 µg/mL + TSH 3 ng/mL; Experiment 2 [6]: 68.5 pmol/mL
- Mutated/wild type (%) of cyclic AMP produced; 5B3 10 µg/mL + TSH 3 ng/mL; Experiment 1 [6]: 85%
- Mutated/wild type (%) of cyclic AMP produced; 5B3 10 µg/mL + TSH 3 ng/mL; Experiment 2 [6]: 96%
- Mutated/wild type (%) of cyclic AMP produced; 5B3 100 µg/mL + TSH 3 ng/mL; Experiment 1 [6]: 95%
- Mutated/wild type (%) of cyclic AMP produced; 5B3 100 µg/mL + TSH 3 ng/mL; Experiment 2 [6]: 99%
- % inhibition of TSH stimulation; 5B3 10 µg/mL [7]: 11%
- % inhibition of TSH stimulation; 5B3 100 µg/mL [7]: 0%
- Cyclic AMP produced; 5B3 10 µg/mL + TSH 3 ng/mL [7]: 105 pmol/mL
- Cyclic AMP produced; 5B3 100 µg/mL + TSH 3 ng/mL [7]: 128 pmol/mL
- Mutated/wild type (%) of cyclic AMP produced; 5B3 10 µg/mL + TSH 3 ng/mL [7]: 112%
- Mutated/wild type (%) of cyclic AMP produced; 5B3 100 µg/mL + TSH 3 ng/mL [7]: 117%
- % inhibition of TSH stimulation; 5B3 10 µg/mL [8]: 0%
- % inhibition of TSH stimulation; 5B3 10 µg/mL; Exp 1 [8]: 0%
- % inhibition of TSH stimulation; 5B3 10 µg/mL; Exp 2 [8]: 0%
- % inhibition of TSH stimulation; 5B3 10 µg/mL; Experiment 1 [8]: 0%
- % inhibition of TSH stimulation; 5B3 10 µg/mL; Experiment 2 [8]: 0%
- % inhibition of TSH stimulation; 5B3 100 µg/mL [8]: 0%
- % inhibition of TSH stimulation; 5B3 100 µg/mL; Exp 1 [8]: 0%
- % inhibition of TSH stimulation; 5B3 100 µg/mL; Exp 2 [8]: 0%
- % inhibition of TSH stimulation; 5B3 100 µg/mL; Experiment 1 [8]: 5%
- % inhibition of TSH stimulation; 5B3 100 µg/mL; Experiment 2 [8]: 0%
- Cyclic AMP produced; 5B3 10 µg/mL + TSH 3 ng/mL [8]: 85.3 pmol/mL
- Cyclic AMP produced; 5B3 10 µg/mL + TSH 3 ng/mL; Exp 1 [8]: 65.7 pmol/mL
- Cyclic AMP produced; 5B3 10 µg/mL + TSH 3 ng/mL; Exp 2 [8]: 100 pmol/mL
- Cyclic AMP produced; 5B3 10 µg/mL + TSH 3 ng/mL; Experiment 1 [8]: 163 pmol/mL
- Cyclic AMP produced; 5B3 10 µg/mL + TSH 3 ng/mL; Experiment 2 [8]: 73.7 pmol/mL
- Cyclic AMP produced; 5B3 100 µg/mL + TSH 3 ng/mL [8]: 81.6 pmol/mL
- Cyclic AMP produced; 5B3 100 µg/mL + TSH 3 ng/mL; Exp 1 [8]: 65.5 pmol/mL
- Cyclic AMP produced; 5B3 100 µg/mL + TSH 3 ng/mL; Exp 2 [8]: 98.1 pmol/mL
- Cyclic AMP produced; 5B3 100 µg/mL + TSH 3 ng/mL; Experiment 1 [8]: 146 pmol/mL
- Cyclic AMP produced; 5B3 100 µg/mL + TSH 3 ng/mL; Experiment 2 [8]: 68.9 pmol/mL
- % inhibition of TSH stimulation; 5B3 10 µg/mL ([8]; record 2): 0%
- % inhibition of TSH stimulation; 5B3 10 µg/mL; Experiment 1 ([8]; record 2): 4%
- % inhibition of TSH stimulation; 5B3 10 µg/mL; Experiment 2 ([8]; record 2): 0%
- % inhibition of TSH stimulation; 5B3 100 µg/mL ([8]; record 2): 0%
- % inhibition of TSH stimulation; 5B3 100 µg/mL; Experiment 1 ([8]; record 2): 0%
- % inhibition of TSH stimulation; 5B3 100 µg/mL; Experiment 2 ([8]; record 2): 0%
- Cyclic AMP produced; 5B3 10 µg/mL + TSH 3 ng/mL ([8]; record 2): 93.7 pmol/mL
- Cyclic AMP produced; 5B3 100 µg/mL + TSH 3 ng/mL ([8]; record 2): 109 pmol/mL
- % inhibition of TSH stimulation; 5B3 10 µg/mL; Exp 1 [9]: 0%
- % inhibition of TSH stimulation; 5B3 10 µg/mL; Exp 2 [9]: 0%
- % inhibition of TSH stimulation; 5B3 100 µg/mL; Exp 1 [9]: 0%
- % inhibition of TSH stimulation; 5B3 100 µg/mL; Exp 2 [9]: 3%
- Cyclic AMP produced; 5B3 10 µg/mL + TSH 3 ng/mL; Exp 1 [9]: 57.6 pmol/mL
- Cyclic AMP produced; 5B3 10 µg/mL + TSH 3 ng/mL; Exp 2 [9]: 55 pmol/mL
- Cyclic AMP produced; 5B3 100 µg/mL + TSH 3 ng/mL; Exp 1 [9]: 57 pmol/mL
- Cyclic AMP produced; 5B3 100 µg/mL + TSH 3 ng/mL; Exp 2 [9]: 45 pmol/mL
- Mutated/wild type (%) of cyclic AMP produced; 5B3 10 µg/mL + TSH 3 ng/mL; Exp 1 [9]: 88%
- Mutated/wild type (%) of cyclic AMP produced; 5B3 10 µg/mL + TSH 3 ng/mL; Exp 2 [9]: 55%
- Mutated/wild type (%) of cyclic AMP produced; 5B3 100 µg/mL + TSH 3 ng/mL; Exp 1 [9]: 87%
- Mutated/wild type (%) of cyclic AMP produced; 5B3 100 µg/mL + TSH 3 ng/mL; Exp 2 [9]: 46%
- % inhibition of TSH stimulation; 5B3 10 µg/mL [10]: 0%
- Cyclic AMP produced; 5B3 10 µg/mL + TSH 3 ng/mL [10]: 131 pmol/mL
- Cyclic AMP produced; 5B3 100 µg/mL + TSH 3 ng/mL [10]: 112 pmol/mL
- % inhibition of TSH stimulation; 5B3 10 µg/mL [11]: 9%
- % inhibition of TSH stimulation; 5B3 100 µg/mL [11]: 0%
- Cyclic AMP produced; 5B3 10 µg/mL + TSH 3 ng/mL [11]: 101 pmol/mL
- Cyclic AMP produced; 5B3 100 µg/mL + TSH 3 ng/mL [11]: 116 pmol/mL
- Mutated/wild type (%) of cyclic AMP produced; 5B3 10 µg/mL + TSH 3 ng/mL [11]: 77%
- Mutated/wild type (%) of cyclic AMP produced; 5B3 100 µg/mL + TSH 3 ng/mL [11]: 103%
- % inhibition of TSH stimulation; 5B3 10 µg/mL [12]: 2%
- % inhibition of TSH stimulation; 5B3 100 µg/mL [12]: 0%
- Cyclic AMP produced; 5B3 10 µg/mL + TSH 3 ng/mL [12]: 78.2 pmol/mL
- Cyclic AMP produced; 5B3 100 µg/mL + TSH 3 ng/mL [12]: 86.9 pmol/mL
- % inhibition of TSH stimulation; 5B3 10 µg/mL [13]: 8%
- % inhibition of TSH stimulation; 5B3 100 µg/mL [13]: 6%
- Cyclic AMP produced; 5B3 10 µg/mL + TSH 3 ng/mL [13]: 111 pmol/mL
- Cyclic AMP produced; 5B3 100 µg/mL + TSH 3 ng/mL [13]: 114 pmol/mL
- Mutated/wild type (%) of cyclic AMP produced; 5B3 10 µg/mL + TSH 3 ng/mL [13]: 142%
- Mutated/wild type (%) of cyclic AMP produced; 5B3 100 µg/mL + TSH 3 ng/mL [13]: 131%
